Data on one substance can be found in patent US20230287109A1.

One assay has as its target rabbit VEGF (rabbit) (UniProt G1T1L9). As to the kind of experiment: SPR, summary table, column Rabbit VEGF, Kd [M].
The target in assay [1] is recombinant human VEGF (human) (UniProt P15692). As to the kind of experiment: cell-based or functional assay.
Chain of recombinant human VEGF (human) (P15692 other isoform, or with tags, fused parts or gaps limits assumed): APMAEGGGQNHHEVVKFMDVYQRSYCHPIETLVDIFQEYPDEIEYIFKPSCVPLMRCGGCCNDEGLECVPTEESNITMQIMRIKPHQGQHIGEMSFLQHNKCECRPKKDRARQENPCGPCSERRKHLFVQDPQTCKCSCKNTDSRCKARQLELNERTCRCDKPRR

For aflibercept (Fc fusion), in the assay with rabbit VEGF (rabbit), the Kd (usually the concentration at which binding is half-saturated) stood at 1.41 nM. In assay [1], the IC50, VEGF reporter assay (KDR/NFAT-RE HEK293 cells, luminescence) worked out at 0.75 nM.
